For test [1], the target named is actin filaments (endocytic patches) (Schizosaccharomyces pombe, UniProt P10989). Kind of test: live-cell fluorescence titration.
The target in test [2] is actin filaments (contractile ring) (Schizosaccharomyces pombe, UniProt P10989). Briefly: live-cell fluorescence titration.

No end group written: not given here.

As usually defined, the Kd is the concentration at which binding is half-saturated. Low values mean higher affinity, high ones lower affinity.

B1: mEGFP-Lifeact (peptide)
chain: MGVADLIKKFESISKEE
modifications: also: mEGFP fusion
Regarding B1, the values for the Kd in test [1] and in test [2] were 20 µM and 6.2 µM, respectively.
